Assay results as given in paper PMC12395675.

Assays:
[1] = viral titre at 24 hpi, MOI 0.01; details: glycan lost; control: rPEDV-WT
[2] = BAC transfection of Vero cells; CPE, western blot; details: glycan lost; control: rPEDV-WT

Row | Protein | other: viral replication [1] | other: virus rescue (viability), other: viruses recovered/attempts [2]
1 | spike (S) protein: N514Q (protein) parent chain: MKSLTYFWLFLPVLSTLSLPQDVTRCSANTNFRRFFSKFNVQAPAVVVLGGYLPIGENQGVNSTWYCAGQHPTASGVHGIFVSHIRGGHGFEIGISQEPFDPSGYQLYLHKATNGNTNATARLRICQFPSIKTLGPTANNDVTTGRNCLFNKAIPAHMSEHSVVGITWDNDRVTVFSDKIYYFYFKNDWSRVATKCYNSGGCAMQYVYEPTYYMLNVTSAGEDGISYQPCTANCIGYAANVFATEPNGHIPEGFSFNNWFLLSNDSTLVHGKVVSNQPLLVNCLLAIPKIYGLGQFFSFNQTIDGVCNGAAVQRAPEALRFNINDTSVILAEGSIVLHTALGTNFSFVCSNSSDPHLATFATPLGATQVPYYCFLKVDTYNSTVYKFLAILPPTVREIVITKYGDFYVNGFGYLHLGLLDAVTINFTGHGTDDDVSGFWTIASTNFVDALIEVQGTAIQRILYCDDPVSQLKCSQVSFDLDDGFYPISSRNLLSHEQPISFVTLPSFNDHSFVNITVSASFGGHSGANLIASDTTINGFSSFCVETRQFTISLFYNVTNSYGYVSKSQDSNCPFTLQSVNDYLSFSKFCVSTSLLASACTIDLFGYPEFGSGVKFTSLYFQFTKGELITGTPKPLVGVTDVSFMTLDVCTKYTIYGFKGEGIITLTNSSFLAGIYYTSDSGQLLAFKNVTSGAVYSVTPCSFSEQAAYVDDDIVGVISSLSNSTFNSTRELPGFFYHSNDGSNCTEPVLVYSNIGVCKSGSIGYVLSKSGQVKIAPTVTGNISIPTNFSMSIRTEYLQLYNTPVSVDCATYVCNGNSRCKQLLTQYIAACKTIESALQLSARLESAEVNSMLTISEEALQLATISSFNGDGYNFTNVLGVSVRDPASGRVVQKRSFIEDLLFNKVVTNGLGTVDEDYKRCSNGRSVADLVCAQYYSGVMVLPGVVDAEKLHMYSASLIGGMVLGGFTAAAALPFSYAVQARLNYLALQTDVLQRNQQLLAESFNSAIGDITSAFESVKEAISQTSKGLNTVAHALTKVQEVVNSQGAALTQLTVQLQHNFQAISSSIDDIYSRLDILSADVQVDRLITGRLSALNAFVAQTLTKYTEVQASRKLAQQKVNECVKSQSQRYGFCGGDGEHIFSLVQAAPQGLLFLHTVLVPGDFVDVIAIAGLCVNDEIALTLREPGLVLFTHELQNHTATEYFVSSRRMFEPRKPTVSDFVQIESCVVTYVNLTRDQLPDVIPDYIDVNKTLYEILASLPNRTGPSLPLDVFNATYLNLTGEIADLEQRSESLRNTTEELQSLIYNINNTLVDLEWLNRVETYIKWPWWVWLIIFIVLIFVVSLLVFCCISTGCCGCCGCCGACFAGCCRGPRLQPYEAFEKVHVQ | no change | no change
2 | spike (S) protein: N873Q (protein) parent chain: MKSLTYFWLFLPVLSTLSLPQDVTRCSANTNFRRFFSKFNVQAPAVVVLGGYLPIGENQGVNSTWYCAGQHPTASGVHGIFVSHIRGGHGFEIGISQEPFDPSGYQLYLHKATNGNTNATARLRICQFPSIKTLGPTANNDVTTGRNCLFNKAIPAHMSEHSVVGITWDNDRVTVFSDKIYYFYFKNDWSRVATKCYNSGGCAMQYVYEPTYYMLNVTSAGEDGISYQPCTANCIGYAANVFATEPNGHIPEGFSFNNWFLLSNDSTLVHGKVVSNQPLLVNCLLAIPKIYGLGQFFSFNQTIDGVCNGAAVQRAPEALRFNINDTSVILAEGSIVLHTALGTNFSFVCSNSSDPHLATFATPLGATQVPYYCFLKVDTYNSTVYKFLAILPPTVREIVITKYGDFYVNGFGYLHLGLLDAVTINFTGHGTDDDVSGFWTIASTNFVDALIEVQGTAIQRILYCDDPVSQLKCSQVSFDLDDGFYPISSRNLLSHEQPISFVTLPSFNDHSFVNITVSASFGGHSGANLIASDTTINGFSSFCVETRQFTISLFYNVTNSYGYVSKSQDSNCPFTLQSVNDYLSFSKFCVSTSLLASACTIDLFGYPEFGSGVKFTSLYFQFTKGELITGTPKPLVGVTDVSFMTLDVCTKYTIYGFKGEGIITLTNSSFLAGIYYTSDSGQLLAFKNVTSGAVYSVTPCSFSEQAAYVDDDIVGVISSLSNSTFNSTRELPGFFYHSNDGSNCTEPVLVYSNIGVCKSGSIGYVLSKSGQVKIAPTVTGNISIPTNFSMSIRTEYLQLYNTPVSVDCATYVCNGNSRCKQLLTQYIAACKTIESALQLSARLESAEVNSMLTISEEALQLATISSFNGDGYNFTNVLGVSVRDPASGRVVQKRSFIEDLLFNKVVTNGLGTVDEDYKRCSNGRSVADLVCAQYYSGVMVLPGVVDAEKLHMYSASLIGGMVLGGFTAAAALPFSYAVQARLNYLALQTDVLQRNQQLLAESFNSAIGDITSAFESVKEAISQTSKGLNTVAHALTKVQEVVNSQGAALTQLTVQLQHNFQAISSSIDDIYSRLDILSADVQVDRLITGRLSALNAFVAQTLTKYTEVQASRKLAQQKVNECVKSQSQRYGFCGGDGEHIFSLVQAAPQGLLFLHTVLVPGDFVDVIAIAGLCVNDEIALTLREPGLVLFTHELQNHTATEYFVSSRRMFEPRKPTVSDFVQIESCVVTYVNLTRDQLPDVIPDYIDVNKTLYEILASLPNRTGPSLPLDVFNATYLNLTGEIADLEQRSESLRNTTEELQSLIYNINNTLVDLEWLNRVETYIKWPWWVWLIIFIVLIFVVSLLVFCCISTGCCGCCGCCGACFAGCCRGPRLQPYEAFEKVHVQ | – | abolishes
3 | spike (S) protein: N556Q (protein) parent chain: MKSLTYFWLFLPVLSTLSLPQDVTRCSANTNFRRFFSKFNVQAPAVVVLGGYLPIGENQGVNSTWYCAGQHPTASGVHGIFVSHIRGGHGFEIGISQEPFDPSGYQLYLHKATNGNTNATARLRICQFPSIKTLGPTANNDVTTGRNCLFNKAIPAHMSEHSVVGITWDNDRVTVFSDKIYYFYFKNDWSRVATKCYNSGGCAMQYVYEPTYYMLNVTSAGEDGISYQPCTANCIGYAANVFATEPNGHIPEGFSFNNWFLLSNDSTLVHGKVVSNQPLLVNCLLAIPKIYGLGQFFSFNQTIDGVCNGAAVQRAPEALRFNINDTSVILAEGSIVLHTALGTNFSFVCSNSSDPHLATFATPLGATQVPYYCFLKVDTYNSTVYKFLAILPPTVREIVITKYGDFYVNGFGYLHLGLLDAVTINFTGHGTDDDVSGFWTIASTNFVDALIEVQGTAIQRILYCDDPVSQLKCSQVSFDLDDGFYPISSRNLLSHEQPISFVTLPSFNDHSFVNITVSASFGGHSGANLIASDTTINGFSSFCVETRQFTISLFYNVTNSYGYVSKSQDSNCPFTLQSVNDYLSFSKFCVSTSLLASACTIDLFGYPEFGSGVKFTSLYFQFTKGELITGTPKPLVGVTDVSFMTLDVCTKYTIYGFKGEGIITLTNSSFLAGIYYTSDSGQLLAFKNVTSGAVYSVTPCSFSEQAAYVDDDIVGVISSLSNSTFNSTRELPGFFYHSNDGSNCTEPVLVYSNIGVCKSGSIGYVLSKSGQVKIAPTVTGNISIPTNFSMSIRTEYLQLYNTPVSVDCATYVCNGNSRCKQLLTQYIAACKTIESALQLSARLESAEVNSMLTISEEALQLATISSFNGDGYNFTNVLGVSVRDPASGRVVQKRSFIEDLLFNKVVTNGLGTVDEDYKRCSNGRSVADLVCAQYYSGVMVLPGVVDAEKLHMYSASLIGGMVLGGFTAAAALPFSYAVQARLNYLALQTDVLQRNQQLLAESFNSAIGDITSAFESVKEAISQTSKGLNTVAHALTKVQEVVNSQGAALTQLTVQLQHNFQAISSSIDDIYSRLDILSADVQVDRLITGRLSALNAFVAQTLTKYTEVQASRKLAQQKVNECVKSQSQRYGFCGGDGEHIFSLVQAAPQGLLFLHTVLVPGDFVDVIAIAGLCVNDEIALTLREPGLVLFTHELQNHTATEYFVSSRRMFEPRKPTVSDFVQIESCVVTYVNLTRDQLPDVIPDYIDVNKTLYEILASLPNRTGPSLPLDVFNATYLNLTGEIADLEQRSESLRNTTEELQSLIYNINNTLVDLEWLNRVETYIKWPWWVWLIIFIVLIFVVSLLVFCCISTGCCGCCGCCGACFAGCCRGPRLQPYEAFEKVHVQ | no change | no change
4 | spike (S) protein: N425Q (protein) parent chain: MKSLTYFWLFLPVLSTLSLPQDVTRCSANTNFRRFFSKFNVQAPAVVVLGGYLPIGENQGVNSTWYCAGQHPTASGVHGIFVSHIRGGHGFEIGISQEPFDPSGYQLYLHKATNGNTNATARLRICQFPSIKTLGPTANNDVTTGRNCLFNKAIPAHMSEHSVVGITWDNDRVTVFSDKIYYFYFKNDWSRVATKCYNSGGCAMQYVYEPTYYMLNVTSAGEDGISYQPCTANCIGYAANVFATEPNGHIPEGFSFNNWFLLSNDSTLVHGKVVSNQPLLVNCLLAIPKIYGLGQFFSFNQTIDGVCNGAAVQRAPEALRFNINDTSVILAEGSIVLHTALGTNFSFVCSNSSDPHLATFATPLGATQVPYYCFLKVDTYNSTVYKFLAILPPTVREIVITKYGDFYVNGFGYLHLGLLDAVTINFTGHGTDDDVSGFWTIASTNFVDALIEVQGTAIQRILYCDDPVSQLKCSQVSFDLDDGFYPISSRNLLSHEQPISFVTLPSFNDHSFVNITVSASFGGHSGANLIASDTTINGFSSFCVETRQFTISLFYNVTNSYGYVSKSQDSNCPFTLQSVNDYLSFSKFCVSTSLLASACTIDLFGYPEFGSGVKFTSLYFQFTKGELITGTPKPLVGVTDVSFMTLDVCTKYTIYGFKGEGIITLTNSSFLAGIYYTSDSGQLLAFKNVTSGAVYSVTPCSFSEQAAYVDDDIVGVISSLSNSTFNSTRELPGFFYHSNDGSNCTEPVLVYSNIGVCKSGSIGYVLSKSGQVKIAPTVTGNISIPTNFSMSIRTEYLQLYNTPVSVDCATYVCNGNSRCKQLLTQYIAACKTIESALQLSARLESAEVNSMLTISEEALQLATISSFNGDGYNFTNVLGVSVRDPASGRVVQKRSFIEDLLFNKVVTNGLGTVDEDYKRCSNGRSVADLVCAQYYSGVMVLPGVVDAEKLHMYSASLIGGMVLGGFTAAAALPFSYAVQARLNYLALQTDVLQRNQQLLAESFNSAIGDITSAFESVKEAISQTSKGLNTVAHALTKVQEVVNSQGAALTQLTVQLQHNFQAISSSIDDIYSRLDILSADVQVDRLITGRLSALNAFVAQTLTKYTEVQASRKLAQQKVNECVKSQSQRYGFCGGDGEHIFSLVQAAPQGLLFLHTVLVPGDFVDVIAIAGLCVNDEIALTLREPGLVLFTHELQNHTATEYFVSSRRMFEPRKPTVSDFVQIESCVVTYVNLTRDQLPDVIPDYIDVNKTLYEILASLPNRTGPSLPLDVFNATYLNLTGEIADLEQRSESLRNTTEELQSLIYNINNTLVDLEWLNRVETYIKWPWWVWLIIFIVLIFVVSLLVFCCISTGCCGCCGCCGACFAGCCRGPRLQPYEAFEKVHVQ | – | abolishes
